The values that follow come from patent publication US20250352667A1.

Test [1] deals with KEAP1 (wild-type full-length), His-tagged (human) (UniProt Q14145). Kind of test: AlphaScreen; 19.2 nM FLAG-NRF2, 150 nM His-KEAP1; Repeat 1 (same value as in Table 26). On the technique in general: Bead proximity is the source of the signal in Alpha formats.
The target is the same in test [2]. Kind of test: AlphaScreen; 1228.8 nM FLAG-NRF2, 150 nM His-KEAP1; Rep 1; control for I28V.
Test [3] shares this target. As to the kind of experiment: AlphaScreen; 2.4 nM FLAG-NRF2, 150 nM His-KEAP1; Rep 1; control for I28V.
The target is the same in test [4]. As to the kind of experiment: AlphaScreen; FLAG-NRF2 wt isoform 1 19.2 nM, His-KEAP1 150 nM; Repeat 1; positive control for Q75R.
For test [5] the target is unchanged. Kind of test: AlphaScreen; mean over 9.6, 19.2 and 38.4 nM NRF2 I86V, KEAP1 150 nM; relative to wild-type NRF2 isoform 1.
The target is the same in test [6]. As to the kind of experiment: AlphaScreen; FLAG-NRF2 I86V 76.8 nM, His-KEAP1 150 nM; Rep 3.
The target is the same in test [7]. As to the kind of experiment: AlphaScreen; average of three conditions; against wild-type NRF2 isoform 1.
For test [8] the target is unchanged. As to the kind of experiment: AlphaScreen; 76.8 nM FLAG-NRF2, 150 nM His-KEAP1; signal against NRF2 only.

Changes are numbered by the printed parent chain. Names and notes keep the numbering of the source.

Sequence of KEAP1 (wild-type full-length), His-tagged (human) (Q14145 2-624 limits assumed): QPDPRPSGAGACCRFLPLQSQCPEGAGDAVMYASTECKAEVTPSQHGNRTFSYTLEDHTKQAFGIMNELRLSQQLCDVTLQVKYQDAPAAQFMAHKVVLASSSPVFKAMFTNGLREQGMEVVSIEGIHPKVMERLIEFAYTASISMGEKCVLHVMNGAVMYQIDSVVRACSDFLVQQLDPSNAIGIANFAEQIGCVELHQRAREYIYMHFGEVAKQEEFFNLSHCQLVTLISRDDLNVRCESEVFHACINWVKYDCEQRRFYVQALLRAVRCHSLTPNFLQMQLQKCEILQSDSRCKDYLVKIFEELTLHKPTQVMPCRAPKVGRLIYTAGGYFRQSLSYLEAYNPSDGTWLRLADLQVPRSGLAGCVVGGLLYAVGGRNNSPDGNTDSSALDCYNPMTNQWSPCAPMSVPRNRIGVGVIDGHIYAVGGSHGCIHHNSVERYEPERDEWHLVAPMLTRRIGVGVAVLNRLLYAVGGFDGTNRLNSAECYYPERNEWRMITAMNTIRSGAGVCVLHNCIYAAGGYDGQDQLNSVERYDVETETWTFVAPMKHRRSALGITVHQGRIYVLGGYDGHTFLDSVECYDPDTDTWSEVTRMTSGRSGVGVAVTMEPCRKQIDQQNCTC

B1: NRF2 isoform 1 (wild-type full-length), FLAG-tagged (protein)
chain: MMDLELPPPGLPSQQDMDLIDILWRQDIDLGVSREVFDFSQRRKEYELEKQKKLEKERQEQLQKEQEKAFFAQLQLDEETGEFLPIQPAQHIQSETSGSANYSQVAHIPKSDALYFDDCMQLLAQTFPFVDDNEVSSATFQSLVPDIPGHIESPVFIATNQAQSPETSVAQVAPVDLDGMQQDIEQVWEELLSIPELQCLNIENDKLVETTMVPSPEAKLTEVDNYHFYSSIPSMEKEVGNCSPHFLNAFEDSFSSILSTEDPNQLTVNSLNSDATVNTDFGDEFYSAFIAEPSISNSMPSPATLSHSLSELLNGPIDVSDLSLCKAFNQNHPESTAEFNDSDSGISLNTSPSVASPEHSVESSSYGDTLLGLSDSEVEELDSAPGSVKQNGPKTPVHSSGDMVQPLSPSQGQSTHVHDAQCENTPEKELPVSPGHRKTPFTKDKHSSRLEAHLTRDELRAKALHIPFPVEKIINLPVVDFNEMMSKEQFNEAQLALIRDIRRRGKNKVAAQNCRKRKLENIVELEQDLDHLKDEKEKLLKEKGENDKSLHLLKKQLSTLYLEVFSMLRDEDGKPYSPSEYSLQQTRDGNVFLVPKSKKPDVKKN
Take B1: the A-counts in test [1] is 1980 A-counts; in test [2], 1450 A-counts; in test [3] it was 622 A-counts. The A-counts (NRF2 plus KEAP1) in test [4] is 1360 A-counts.

B2: NRF2 isoform 1 (I86V full-length), FLAG-tagged (protein)
chain: B1 chain with I86V
With B2, in test [5], the Average Binding stood at 96.8% and the Avg. Reduction in Binding was 3.2%. For the same molecule, the A-counts (NRF2 plus KEAP1) in test [6] was 2560 A-counts.

B3: NRF2 isoform 1 (I28V full-length), FLAG-tagged (protein)
chain: B1 chain with I28V
In turn, B3 came in with a Reported Value (reduction in binding) in test [7] of 30.2%. The same molecule came in with a S/N in test [8] of 2.2.
